Source: article PMC6609460 (Nature structural & molecular biology, 2019)

T1: FBXL2 in the crystallised GGTase3-FBXL2-SKP1 complex (human, UniProt Q9UKC9 1-423)
T1 sequence: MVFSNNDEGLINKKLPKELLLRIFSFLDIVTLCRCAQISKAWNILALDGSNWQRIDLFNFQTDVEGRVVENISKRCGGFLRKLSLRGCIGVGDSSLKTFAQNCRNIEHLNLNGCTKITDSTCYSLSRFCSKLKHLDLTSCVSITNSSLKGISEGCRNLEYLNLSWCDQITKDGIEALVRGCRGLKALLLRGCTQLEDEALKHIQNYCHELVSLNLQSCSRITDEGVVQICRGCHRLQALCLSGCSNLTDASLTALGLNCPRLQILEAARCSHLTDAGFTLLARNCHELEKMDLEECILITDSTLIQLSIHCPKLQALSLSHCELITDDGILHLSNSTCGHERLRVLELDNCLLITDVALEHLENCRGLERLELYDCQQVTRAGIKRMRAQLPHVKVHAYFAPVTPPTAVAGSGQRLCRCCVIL

B1: RabGGTB in the crystallised GGTase3-FBXL2-SKP1 complex (natural protein)
chain: MGTPQKDVIIKSDAPDTLLLEKHADYIASYGSKKDDYEYCMSEYLRMSGIYWGLTVMDLMGQLHRMNREEILAFIKSCQHECGGISASIGHDPHLLYTLSAVQILTLYDSINVIDVNKVVEYVKGLQKEDGSFAGDIWGEIDTRFSFCAVATLALLGKLDAINVEKAIEFVLSCMNFDGGFGCRPGSESHAGQIYCCTGFLAITSQLHQVNSDLLGWWLCERQLPSGGLNGRPEKLPDVCYSWWVLASLKIIGRLHWIDREKLRNFILACQDEETGGFADRPGDMVDPFHTLFGIAGLSLLGEEQIKPVNPVFCMPEEVLQRVNVQPELVS
B2: PTAR1 in the crystallised GGTase3-FBXL2-SKP1 complex (natural protein)
chain: MAETSEEVAVLVQRVVKDITNAFRRNPHIDEIGLIPCPEARYNRSPIVLVENKLGVESWCVKFLLPYVHNKLLLYRTRKQWLNRDELIDVTCTLLLLNPDFTTAWNVRKELILSGTLNPIKDLHLGKLALTKFPKSPETWIHRRWVLQQLIQETSLPSFVTKGNLGTIPTERAQRLIQEEMEVCGEAAGRYPSNYNAWSHRIWVLQHLAKLDVKILLDELSSTKHWASMHVSDHSGFHYRQFLLKSLISQTVIDSSVMEQNPLRSEPALVPPKDEEAAVSTEEPRINLPHLLEEEVEFSTDLIDSYPGHETLWCHRRHIFYLQHHLNAGSQLSQAMEVDGLNDSSKQGYSQETKRLKRTPVPDSLGLEMEHRFIDQVLSTCRNVEQARFASAYRKWLVTLSQ

Columns and labels:
[1] = target: B2; assay: crystal structure
[2] = target: T1, FBXL2 in the crystallised …; assay: crystal structure

| Binder | binding result [1] | binding result [2] |
| --- | --- | --- |
| B1 | binds |  |
| B2 |  | binds |
